# From FireProtDB (doi:10.1111/j.1432-1033.1994.tb18664.x)
# Conditions: Escherichia coli (strain K12), Thermal, CD, NaCl 0.1 M, reversible: yes, whole UniProt chain shown
protein,measurement,setting,value
"Ribonuclease HI wild type, P0A7Y4 (protein) MLKQVEIFTDGSCLGNPGPGGYGAILRYRGREKTFSAGYTRTTNNRMELMAAIVALEALKEHCEVILSTDSQYVRQGITQWIHNWKKRGWKTADKKPVKNVDLWQRLDAALGQHQIKWEWVKGHAGHPENERCDELARAAAMNPTLEDTGYQVEV",Tm,"pH 3, glycine-HCl 10 mM",50 °C
same,unfolding enthalpy (van 't Hoff),"pH 3, glycine-HCl 10 mM",107 kcal/mol
same,Tm,"pH 5.5, Sodium acetate 20 mM",53.1 °C
same,unfolding enthalpy (van 't Hoff),"pH 5.5, Sodium acetate 20 mM",83.3 kcal/mol
